In experiment [1] the target is human CD16a (human FcγRIIIA), V isoform (human) (UniProt P08637). In words: SPR (Biacore T200), His-tagged huCD16a captured by anti-His antibody on CM5 chip, antibody injected at 5.8-3000 nmol/L, steady state fit. A general note: In SPR one partner is held on a chip, and binding of the other changes the refractive index at the surface.
The target of experiment [2] is human neonatal Fc receptor (FcRn) (human) (UniProt P55899). Description: SPR, binding to huFcRn at pH 6.0.

The values below come from patent publication US20240034816A1.

Chain of human CD16a (human FcγRIIIA), V isoform (human) (P08637 17-208 F176V limits assumed): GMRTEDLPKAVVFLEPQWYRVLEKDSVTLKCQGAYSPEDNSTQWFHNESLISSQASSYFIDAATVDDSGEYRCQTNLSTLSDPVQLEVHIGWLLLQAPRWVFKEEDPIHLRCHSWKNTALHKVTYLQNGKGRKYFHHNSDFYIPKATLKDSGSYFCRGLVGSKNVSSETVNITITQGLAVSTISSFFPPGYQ
Chain of human neonatal Fc receptor (FcRn) (human) (P55899 24-297 limits assumed, chain 1 of 2): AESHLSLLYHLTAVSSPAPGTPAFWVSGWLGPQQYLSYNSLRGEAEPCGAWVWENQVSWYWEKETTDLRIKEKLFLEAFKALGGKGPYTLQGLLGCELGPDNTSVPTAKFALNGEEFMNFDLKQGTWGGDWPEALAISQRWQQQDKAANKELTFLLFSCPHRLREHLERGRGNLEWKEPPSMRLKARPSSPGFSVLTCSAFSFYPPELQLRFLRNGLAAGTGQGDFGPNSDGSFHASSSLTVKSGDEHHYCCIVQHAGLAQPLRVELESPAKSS
Chain of human neonatal Fc receptor (FcRn) (human) (chain, as listed by the source limits assumed, chain 2 of 2): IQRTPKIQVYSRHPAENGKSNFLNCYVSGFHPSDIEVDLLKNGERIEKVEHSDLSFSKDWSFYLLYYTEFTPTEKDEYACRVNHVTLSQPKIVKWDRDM

Turning to Adalimumab huIgG1 ctrl (antibody), the Kd – broadly, the constant that tells how readily two partners part at equilibrium – amounted to 467 nM in experiment [1] and 154 nM in experiment [2].
